Source: doi:10.1101/620385
pKd: −log10 of the molar value.

Assays:
[1] = molecular target: nucleosome core particle with histone H3 phosphorylated at Thr3 (human | Xenopus laevis) (UniProt P84233); assay: SPR
[2] = molecular target: unmodified nucleosome core particle (human | Xenopus laevis); assay: SPR

| Substance | fold reduction in binding affinity against CPC LM [1] | fold reduction in binding affinity against CPC LM [2] | pKd [1] | pKd [2] |
| --- | --- | --- | --- | --- |
| CPC localisation module containing Borealin 10-end (from UniProt Q53HL2;O15392;Q9NQS7) (complex) | 3 fold | 3 fold |  |  |
| CPC localisation module (Borealin-Survivin-INCENP 1-58) (from UniProt Q53HL2;O15392;Q9NQS7) (complex) |  |  | 6.99 | 6.53 |
